Test results reported in patent US20260242735A1 (UNIVERSIT T BASEL, published 2026).

How the values were obtained:
Assay in all cases: flow cytometry, alanine scan
[1] = molecular target: human CD33 V361A (human, UniProt P20138 18-364)
[2] = molecular target: human CD33 A341S (human, UniProt P20138 18-364)
[3] = molecular target: human CD33 E360A (human, UniProt P20138 18-364)
[4] = molecular target: human CD33 S355A (human, UniProt P20138 18-364)
[5] = molecular target: human CD33 S323A (human, UniProt P20138 18-364)
[6] = molecular target: human CD33 S351A (human, UniProt P20138 18-364)
[7] = molecular target: human CD33 L343A (human, UniProt P20138 18-364)
[8] = molecular target: human CD33 N344A (human, UniProt P20138 18-364)
[9] = molecular target: human CD33 E333A (human, UniProt P20138 18-364)
[10] = molecular target: human CD33 D335A (human, UniProt P20138 18-364)
[11] = molecular target: human CD33 T320A (human, UniProt P20138 18-364)
[12] = molecular target: human CD33 N349A (human, UniProt P20138 18-364)
human CD33 N349A, sequence (P20138 18-364 N349A limits assumed): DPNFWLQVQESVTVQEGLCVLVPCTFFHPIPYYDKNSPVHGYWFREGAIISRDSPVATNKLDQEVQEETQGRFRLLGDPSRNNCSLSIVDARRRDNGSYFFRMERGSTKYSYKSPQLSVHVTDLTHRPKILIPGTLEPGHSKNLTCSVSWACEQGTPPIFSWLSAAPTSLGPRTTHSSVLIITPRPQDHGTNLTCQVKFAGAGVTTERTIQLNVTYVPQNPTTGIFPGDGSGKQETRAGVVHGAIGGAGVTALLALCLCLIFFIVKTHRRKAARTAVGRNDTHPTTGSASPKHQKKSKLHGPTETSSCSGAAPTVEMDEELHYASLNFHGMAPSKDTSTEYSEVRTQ

[13] = molecular target: human CD33 M334A (human, UniProt P20138 18-364)
[14] = molecular target: human CD33 S359A (human, UniProt P20138 18-364)
[15] = molecular target: human CD33 R362A (human, UniProt P20138 18-364)
human CD33 R362A, sequence (P20138 18-364 R362A limits assumed): as the sequence (P20138 18-364 N349A limits assumed) above, with A332N, R345A counted along it

[16] = molecular target: human CD33 S342A (human, UniProt P20138 18-364)
human CD33 S342A, sequence (P20138 18-364 S342A limits assumed): as the sequence (P20138 18-364 N349A limits assumed) above, with S325A, A332N counted along it

[17] = molecular target: human CD33 T331A (human, UniProt P20138 18-364)
[18] = molecular target: human CD33 T322A (human, UniProt P20138 18-364)
human CD33 T322A, sequence (P20138 18-364 T322A limits assumed): as the sequence (P20138 18-364 N349A limits assumed) above, with T305A, A332N counted along it

[19] = molecular target: human CD33 G318A (human, UniProt P20138 18-364)
[20] = molecular target: human CD33 P330A (human, UniProt P20138 18-364)
human CD33 P330A, sequence (P20138 18-364 P330A limits assumed): as the sequence (P20138 18-364 N349A limits assumed) above, with P313A, A332N counted along it

[21] = molecular target: human CD33 M348A (human, UniProt P20138 18-364)
human CD33 M348A, sequence (P20138 18-364 M348A limits assumed): as the sequence (P20138 18-364 N349A limits assumed) above, with M331A, A332N counted along it

[22] = molecular target: human CD33 T354A (human, UniProt P20138 18-364)
[23] = molecular target: human CD33 S324A (human, UniProt P20138 18-364)
human CD33 S324A, sequence (P20138 18-364 S324A limits assumed): as the sequence (P20138 18-364 N349A limits assumed) above, with S307A, A332N counted along it

[24] = molecular target: human CD33 G327A (human, UniProt P20138 18-364)
human CD33 G327A, sequence (P20138 18-364 G327A limits assumed): as the sequence (P20138 18-364 N349A limits assumed) above, with G310A, A332N counted along it

[25] = molecular target: human CD33 Y358A (human, UniProt P20138 18-364)
[26] = molecular target: human CD33 Y340A (human, UniProt P20138 18-364)
[27] = molecular target: human CD33 G347A (human, UniProt P20138 18-364)
[28] = molecular target: human CD33 A329S (human, UniProt P20138 18-364)
human CD33 A329S, sequence (P20138 18-364 A329S limits assumed): as the sequence (P20138 18-364 N349A limits assumed) above, with A312S, A332N counted along it

[29] = molecular target: human CD33 C325A (human, UniProt P20138 18-364)
human CD33 C325A, sequence (P20138 18-364 C325A limits assumed): as the sequence (P20138 18-364 N349A limits assumed) above, with C308A, A332N counted along it

[30] = molecular target: human CD33 H346A (human, UniProt P20138 18-364)
[31] = molecular target: human CD33 V332A (human, UniProt P20138 18-364)
human CD33 V332A, sequence (P20138 18-364 V332A limits assumed): as the sequence (P20138 18-364 N349A limits assumed) above, with V315A, A332N counted along it

[32] = molecular target: human CD33 D353A (human, UniProt P20138 18-364)
[33] = molecular target: human CD33 E336A (human, UniProt P20138 18-364)
[34] = molecular target: human CD33 H339A (human, UniProt P20138 18-364)
[35] = molecular target: human CD33 S326A (human, UniProt P20138 18-364)
[36] = molecular target: human CD33 P319A (human, UniProt P20138 18-364)
[37] = molecular target: human CD33 T363A (human, UniProt P20138 18-364)
[38] = molecular target: human CD33 Q364A (human, UniProt P20138 18-363)
[39] = molecular target: human CD33 F345A (human, UniProt P20138 18-364)
[40] = molecular target: human CD33 P350A (human, UniProt P20138 18-364)
[41] = molecular target: human CD33 K352A (human, UniProt P20138 18-364)
[42] = molecular target: human CD33 A328S (human, UniProt P20138 18-364)
human CD33 A328S, sequence (P20138 18-364 A328S limits assumed): as the sequence (P20138 18-364 N349A limits assumed) above, with A311S, A332N counted along it

[43] = molecular target: human CD33 E357A (human, UniProt P20138 18-364)
[44] = molecular target: human CD33 L338A (human, UniProt P20138 18-364)
[45] = molecular target: human CD33 T356A (human, UniProt P20138 18-364)
[46] = molecular target: human CD33 E321A (human, UniProt P20138 18-364)
[47] = molecular target: human CD33 E337A (human, UniProt P20138 18-364)

human CD33 E360A, sequence (P20138 18-364 E360A limits assumed): as the sequence (P20138 18-364 N349A limits assumed) above, with A332N, E343A counted along it
human CD33 A341S, sequence (P20138 18-364 A341S limits assumed): as the sequence (P20138 18-364 N349A limits assumed) above, with A324S, A332N counted along it

B1: Refmab #2 (antibody, V domains shown)
VH: QVQLVQSGAEVKKPGSSVKVSCKASGGTFSDYAISWVRQAPGQGLEWMGRIIPILGVADYAQKFQGRVTITADKSTRTAYMELSSLRSEDTAVYYCARNWADAFDIWGQGTMVTVSS
VL: DIQLTQSPSSLSASVGDRVTITCRASQGISSVLAWYQQKPGKAPKLLIYDASSLESGVPSRFSGSGSGTDFTLTISSLQPEDFATYYCQQFDSSITFGQGTKLEIK
notes: The alanine scan used IgG or Fab
For B1, the “Mean % WT Binding” value [1] was 99.4 % of WT, the “Mean % WT Binding” value [2] was 116 % of WT and the “Mean % WT Binding” value [3] was 101 % of WT. For the same binder, the “Mean % WT Binding” value [4] was 105 % of WT, the “Mean % WT Binding” value [5] was 119 % of WT and the “Mean % WT Binding” value [6] was 109 % of WT. For the same binder, the “Mean % WT Binding” value [7] was 111 % of WT, the “Mean % WT Binding” value [8] was 88.1 % of WT and the “Mean % WT Binding” value [9] was 108 % of WT. The “Mean % WT Binding” value [10] was 117 % of WT, the “Mean % WT Binding” value [11] was 112 % of WT and the “Mean % WT Binding” value [12] was 110 % of WT. For the same binder, the “Mean % WT Binding” value [13] was 106 % of WT, the “Mean % WT Binding” value [14] was 102 % of WT and the “Mean % WT Binding” value [15] was 119 % of WT. For the same binder, the “Mean % WT Binding” value [16] was 117 % of WT, the “Mean % WT Binding” value [17] was 91.3 % of WT and the “Mean % WT Binding” value [18] was 111 % of WT. The “Mean % WT Binding” value [19] was 106 % of WT, the “Mean % WT Binding” value [20] was 119 % of WT and the “Mean % WT Binding” value [21] was 115 % of WT. For the same binder, the “Mean % WT Binding” value [22] was 111 % of WT, the “Mean % WT Binding” value [23] was 106 % of WT and the “Mean % WT Binding” value [24] was 122 % of WT. The “Mean % WT Binding” value [25] was 110 % of WT, the “Mean % WT Binding” value [26] was 106 % of WT and the “Mean % WT Binding” value [27] was 85.9 % of WT. The “Mean % WT Binding” value [28] was 116 % of WT, the “Mean % WT Binding” value [29] was 109 % of WT and the “Mean % WT Binding” value [30] was 118 % of WT. The “Mean % WT Binding” value [31] was 91.6 % of WT, the “Mean % WT Binding” value [32] was 94.4 % of WT and the “Mean % WT Binding” value [33] was 117 % of WT. The “Mean % WT Binding” value [34] was 99.5 % of WT, the “Mean % WT Binding” value [35] was 109 % of WT and the “Mean % WT Binding” value [36] was 100 % of WT. The “Mean % WT Binding” value [37] was 108 % of WT, the “Mean % WT Binding” value [38] was 109 % of WT and the “Mean % WT Binding” value [39] was 102 % of WT. For the same binder, the “Mean % WT Binding” value [40] was 117 % of WT, the “Mean % WT Binding” value [41] was 113 % of WT and the “Mean % WT Binding” value [42] was 102 % of WT. The “Mean % WT Binding” value [43] was 104 % of WT, the “Mean % WT Binding” value [44] was 107 % of WT and the “Mean % WT Binding” value [45] was 111 % of WT. The “Mean % WT Binding” value [46] was 117 % of WT and the “Mean % WT Binding” value [47] was 116 % of WT.

B2: Refmab #1 (antibody, V domains shown)
VH: EVQLVQSGAEVKKPGSSVKVSCKASGYTITDSNIHWVRQAPGQSLEWIGYIYPYNGGTDYNQKFKNRATLTVDNPTNTAYMELSSLRSEDTAFYYCVNGNPWLAYWGQGTLVTVSS
VL: DIQLTQSPSTLSASVGDRVTITCRASESLDNYGIRFLTWFQQKPGKAPKLLMYAASNQGSGVPSRFSGSGSGTEFTLTISSLQPDDFATYYCQQTKEVPWSFGQGTKVEVK
notes: The alanine scan used IgG or Fab; also called hP67.6
In the case of B2, the “Mean % WT Binding” value [1] is reported as 88.8 % of WT, the “Mean % WT Binding” value [2] is reported as 86.8 % of WT and the “Mean % WT Binding” value [3] is reported as 73.7 % of WT. For the same binder, the “Mean % WT Binding” value [4] was 86.1 % of WT, the “Mean % WT Binding” value [5] was 95.2 % of WT and the “Mean % WT Binding” value [6] was 102 % of WT. For the same binder, the “Mean % WT Binding” value [7] was 88.5 % of WT, the “Mean % WT Binding” value [8] was 72.1 % of WT and the “Mean % WT Binding” value [9] was 77.9 % of WT. The “Mean % WT Binding” value [10] was 77.8 % of WT, the “Mean % WT Binding” value [11] was 98.5 % of WT and the “Mean % WT Binding” value [12] was 92.3 % of WT. For the same binder, the “Mean % WT Binding” value [13] was 94.6 % of WT, the “Mean % WT Binding” value [14] was 95.8 % of WT and the “Mean % WT Binding” value [15] was 104 % of WT. The “Mean % WT Binding” value [16] was 79.5 % of WT, the “Mean % WT Binding” value [17] was 87.4 % of WT and the “Mean % WT Binding” value [18] was 104 % of WT. The “Mean % WT Binding” value [19] was 98.5 % of WT, the “Mean % WT Binding” value [20] was 98.6 % of WT and the “Mean % WT Binding” value [21] was 83.3 % of WT. The “Mean % WT Binding” value [22] was 91.8 % of WT, the “Mean % WT Binding” value [23] was 97.8 % of WT and the “Mean % WT Binding” value [24] was 88 % of WT. For the same binder, the “Mean % WT Binding” value [25] was 76.1 % of WT, the “Mean % WT Binding” value [26] was 91.1 % of WT and the “Mean % WT Binding” value [27] was 85.1 % of WT. The “Mean % WT Binding” value [28] was 88.1 % of WT, the “Mean % WT Binding” value [29] was 80.1 % of WT and the “Mean % WT Binding” value [30] was 81.8 % of WT. The “Mean % WT Binding” value [31] was 107 % of WT, the “Mean % WT Binding” value [32] was 94.7 % of WT and the “Mean % WT Binding” value [33] was 82.8 % of WT. The “Mean % WT Binding” value [34] was 76.7 % of WT, the “Mean % WT Binding” value [35] was 85.6 % of WT and the “Mean % WT Binding” value [36] was 83.9 % of WT. The “Mean % WT Binding” value [37] was 91.4 % of WT, the “Mean % WT Binding” value [38] was 72 % of WT and the “Mean % WT Binding” value [39] was 97.8 % of WT. The “Mean % WT Binding” value [40] was 99 % of WT, the “Mean % WT Binding” value [41] was 95.3 % of WT and the “Mean % WT Binding” value [42] was 86.5 % of WT. For the same binder, the “Mean % WT Binding” value [43] was 98.7 % of WT, the “Mean % WT Binding” value [44] was 83.1 % of WT and the “Mean % WT Binding” value [45] was 93.5 % of WT. The “Mean % WT Binding” value [46] was 88.3 % of WT and the “Mean % WT Binding” value [47] was 91.1 % of WT.
